Earlier results as cited in article PMC4918944.

Target: SecY (Bacillus subtilis) (UniProt P16336)
UniProt P16336, sequence (P16336 whole entry): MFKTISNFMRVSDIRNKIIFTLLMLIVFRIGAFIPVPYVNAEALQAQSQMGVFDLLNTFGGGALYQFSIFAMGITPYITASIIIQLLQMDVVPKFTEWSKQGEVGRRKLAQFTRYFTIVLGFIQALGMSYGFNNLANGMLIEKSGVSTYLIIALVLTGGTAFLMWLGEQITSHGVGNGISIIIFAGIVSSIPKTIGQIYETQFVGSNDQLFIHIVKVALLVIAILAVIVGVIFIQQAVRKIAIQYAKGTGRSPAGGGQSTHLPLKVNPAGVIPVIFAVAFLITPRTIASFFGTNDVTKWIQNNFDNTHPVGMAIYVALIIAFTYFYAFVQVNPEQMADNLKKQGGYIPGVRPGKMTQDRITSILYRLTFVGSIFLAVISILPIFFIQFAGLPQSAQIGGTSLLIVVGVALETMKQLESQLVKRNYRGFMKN

In the case of SecA (from UniProt P28366), the Kd is given as 4 nM.
